According to publication PMC5096715, “Mapping the Complement Factor H-Related Protein 1 (CFHR1):C3b/C3d Interactions” (PLoS ONE, 2016):

Target: the molecule itself
Assay: SEC; preparative HiPrep 16/60 Sephacryl S200 column in DPBS pH 7.4

B1: complement factor H-related protein 1 (CFHR1), recombinant wild-type (natural protein, human, UniProt Q03591 19-330, looked up)
chain: EATFCDFPKINHGILYDEEKYKPFSQVPTGEVFYYSCEYNFVSPSKSFWTRITCTEEGWSPTPKCLRLCFFPFVENGHSESSGQTHLEGDTVQIICNTGYRLQNNENNISCVERGWSTPPKCRSTDTSCVNPPTVQNAHILSRQMSKYPSGERVRYECRSPYEMFGDEEVMCLNGNWTEPPQCKDSTGKCGPPPPIDNGDITSFPLSVYAPASSVEYQCQNLYQLEGNKRITCRNGQWSEPPKCLHPCVISREIMENYNIALRWTAKQKLYLRTGESAEFVCKRGYRLSSRSHTLRTTCWDGKLEYPTCAKR
notes: complement factor H-related protein 1, human, CFHR1*A variant, residues 19-330 of Q03591 (the mature protein, 5 SCR modules); no cleavage of the tag is told; Glycosylated; elutes as a mixture of dimers and monomers; also called wild-type CFHR1; CFHR1*A variant; source: Freestyle 293f cells, transiently transfected, secreted, purified (Histrap HP, Sephacryl S200 SEC); not shown: His6, N-terminal, …
stoichiometry N: 2
